Source: patent US20100135904A1 (RESEARCH DEVELOPMENT FOUNDATION, published 2010)

B1: Cripto mutant lacking the CFC domain (ΔCFC), Flag-tagged (ligand, not shown: small tags and cut ends)
chain: not shown
notes: also called Cripto ACFC mutant; ACFC
B2: endogenous human GRP78 (glucose regulated protein 78) at the cell surface (receptor)
chain: not shown
notes: whole, on cells; Endogenous protein; surface pool labelled with cell-impermeable biotin in the co-immunoprecipitations; also called BiP; cell surface GRP78
B3: TGF-β type I receptor, HA-tagged (TβRI-HA) (receptor, UniProt P36897 34-503, looked up, not shown: small tags and cut ends)
chain: LQCFCHLCTKDNFTCVTDGLCFVSVTETTDKVIHNSMCIAEIDLIPRDRPFVCAPSSKTGSVTTTYCCNQDHCNKIELPTTVKSSPGLGPVELAAVIAGPVCFVCISLMLMVYICHNRTVIHHRVPNEEDPSLDRPFISEGTTLKDLIYDMTTSGSGSGLPLLVQRTIARTIVLQESIGKGRFGEVWRGKWRGEEVAVKIFSSREERSWFREAEIYQTVMLRHENILGFIAADNKDNGTWTQLWLVSDYHEHGSLFDYLNRYTVTVEGMIKLALSTASGLAHLHMEIVGTQGKPAIAHRDLKSKNILVKKNGTCCIADLGLAVRHDSATDTIDIAPNHRVGTKRYMAPEVLDDSINMKHFESFKRADIYAMGLVFWEIARRCSIGGIHEDYQLPYYDLVPSDPSVEEMRKVVCEQKLRPNIPNRWQSCEALRVMAKIMRECWYANGAARLTALRIKKTLSQLSQQEGIKM
notes: whole, on cells; Gift construct; also called TBβRI-HA; TBβRI

Assays:
[1] = molecular target: T1, human GRP78 with a hemagglutinin (HA) epitope at its C terminus (human, UniProt P11021 19-654); experiment: cell-free pull-down of biotinylated GRP78-HA on Cripto mutant beads
T1 construct: also called GRP78-HA; WT GRP78-HA
Source text: To further characterize the ability of Cripto to bind cell surface GRP78, the inventors tested whether GRP78 from one population of cells could bind mature Cripto isolated from a separate cell population in a cell free system. […] The beads were then washed again and bound proteins were eluted with Flag peptide and subjected to Western blotting using avidin-HRP, anti-GRP78 or anti-Cripto antibodies. […] Moreover, biotinylated (i.e. cell surface-labeled) GRP78 was specifically eluted from beads previously exposed to Cripto-Flag lysates but not from beads exposed to vector lysates.
In order to explore the interaction between Cripto and GRP78 further, the inventors used the method described above (FIG. 2B) to test whether cell surface labeled GRP78 binds Cripto mutants lacking either the EGF-like domain (AEGF) or CFC domain (ACFC). In this experiment, the inventors assessed the ability of biotinylated, HA-tagged GRP78 from one cell population to bind wild type and mutant forms of Cripto originating from separate cell populations.

[2] = molecular target: T2, TGF-β type II receptor, His-tagged (TβRII-His) (UniProt P37173 23-166, limits assumed); experiment: anti-His immunoprecipitation from surface-biotinylated 293T cells, avidin-HRP and anti-GRP78 blots
T2 construct: whole, on cells; Gift construct; also called TBβRII-His; TBβRII; not shown: His tag
Description: (§1) Cell lysates and immunoprecipitations. Cell lysates were prepared in RIPA buffer as previously described (Gray et al., 2006). For immunoprecipitation experiments, 1-5 mg protein extract was pre-cleared by protein G-PLUS-Agarose beads for 2 hours at 4° C. The pre-cleared extracts were incubated as indicated with 40 μl anti-FLAG M2 gel beads or 20 μl G-PLUS-Agarose pre-incubated with 15 μl anti-GRP78 (KDEL), 10 μl anti-HA, or 25 μl anti-His for 2 hours at 4° C. Immunoprecipitates were subsequently washed 4 times with RIPA buffer and 2 times with 54K buffer (50 mM tris pH 7.9, 150 mM NaCl, 0.5% Triton X-100). The proteins were then eluted either by heating the beads at 95° C. in sample buffer or by the addition of 50 μl of Flag peptide (1 μg/μl) followed by removal of any remaining associated proteins by heating in sample buffer. Western blotting
(§2) The finding that GRP78 inhibits TGF-β signaling raised the possibility that it does so by binding directly to type I and/or type II TGF-β signaling receptors. […] Here the inventors have further tested whether GRP78 similarly co-immunoprecipitates with TBβRI and TBβRII. […] Each of these proteins was immunoprecipitated as bait and then immune complexes were assessed for the presence of GRP78. […] However, only Cripto pulled down endogenous GRP78 as detected both by avidin-HRP and anti-GRP78 antibody (FIG. 5).

[3] = molecular target: B2; experiment: anti-HA immunoprecipitation from surface-biotinylated 293T cells, avidin-HRP and anti-GRP78 blots
Description: as §1, §2

T2 sequence (P37173 23-166 limits assumed): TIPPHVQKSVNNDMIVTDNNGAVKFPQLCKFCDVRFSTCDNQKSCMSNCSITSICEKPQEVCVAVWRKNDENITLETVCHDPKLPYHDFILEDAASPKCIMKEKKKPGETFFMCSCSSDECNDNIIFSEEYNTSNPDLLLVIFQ
T1 sequence (P11021 19-654 limits assumed): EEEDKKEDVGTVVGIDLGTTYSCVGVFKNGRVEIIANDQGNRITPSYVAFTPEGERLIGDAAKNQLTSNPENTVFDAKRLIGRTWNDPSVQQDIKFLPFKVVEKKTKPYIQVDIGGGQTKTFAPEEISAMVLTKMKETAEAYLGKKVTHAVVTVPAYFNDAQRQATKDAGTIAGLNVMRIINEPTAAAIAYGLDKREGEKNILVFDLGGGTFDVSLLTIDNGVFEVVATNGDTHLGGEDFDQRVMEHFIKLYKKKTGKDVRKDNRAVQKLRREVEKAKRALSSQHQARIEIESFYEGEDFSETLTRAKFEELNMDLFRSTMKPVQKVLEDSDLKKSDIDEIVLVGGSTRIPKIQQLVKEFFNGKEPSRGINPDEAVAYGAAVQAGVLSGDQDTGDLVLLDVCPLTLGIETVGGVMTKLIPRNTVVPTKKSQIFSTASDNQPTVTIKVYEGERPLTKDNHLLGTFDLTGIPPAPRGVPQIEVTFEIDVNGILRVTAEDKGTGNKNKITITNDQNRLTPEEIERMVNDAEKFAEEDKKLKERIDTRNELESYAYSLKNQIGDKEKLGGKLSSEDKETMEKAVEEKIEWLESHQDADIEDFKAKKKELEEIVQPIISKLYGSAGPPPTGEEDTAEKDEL

B1
binding result [1]: no binding

B2
binding result [2]: no binding

B3
binding result [3]: no binding
